Results on 167 variants are retold here after the RNAGym collection of RNA variant scans (doi:10.7554/elife.80360).

B1: Hammerhead Ribozyme (parent)
chain: ACCGGAUGUGCUUUCCGGUCUGAUGAGUCCGUGAGGACGAAACAG

The variants in this data set derive from B1. The data set can be described thus: self-cleavage, relative activity (ratio to wild type); higher = more cleavage; co-transcriptional.
On to A42U G45C, for which the self-cleavage was 0.404. For A42U G45U, the self-cleavage was determined as 0.427. As for A42U G45A, the self-cleavage stood at 0.374. Consider A41G G45A, for which the self-cleavage came to 0.25. To A41G G45C belongs 0.402; to A41G G45U, 0.407; to C38U A40G, 0.37.

For the variant C38U A40C, the self-cleavage came out at 0.598.

For the variant C38U A40U, the self-cleavage was 0.348. To A40C A42U belongs 0.427; to A40C A42C, 0.369. In the case of A40C A42G, the self-cleavage was 0.314. On to A37G A41G, for which the self-cleavage worked out at 0.268. In the case of A37G A41U, the self-cleavage was determined as 0.378. A37G A41C: the self-cleavage is 0.358. To A37G C38U belongs 0.534; to A37G C38A, 0.639. Under A37G C38G stands 0.79. For the variant G39U A42G, the self-cleavage stood at 0.342. Turning to G39U A42U, the self-cleavage stood at 0.39. Regarding G39U A42C, the self-cleavage turned out to be 0.353. Take A37G G39A: the self-cleavage stood at 0.362. To A37G G39U belongs 0.307; to A37G G39C, 0.371. For C38G A41U, the self-cleavage turned out to be 0.316. Consider C38G A41C, for which the self-cleavage is 0.298. Consider C38G A41G, for which the self-cleavage was 0.404. As for G39U C43A, the self-cleavage was 0.312. For G39U C43U, the self-cleavage came to 0.371. Regarding G39U C43G, the self-cleavage stood at 0.298. For A37C G39A, the self-cleavage amounted to 0.295. To A37C G39U belongs 0.281; to A37C G39C, 0.316; to A37G A42U, 0.32. As for A37G A42C, the self-cleavage came out at 0.342. Take A37G A42G: the self-cleavage is 0.264. Consider A40C G45U, for which the self-cleavage worked out at 0.431. To A40C G45A belongs 0.431. Take A40C G45C: the self-cleavage came to 0.399.

G39U A40G: the self-cleavage was determined as 0.361. To G39U A40C belongs 0.295; to G39U A40U, 0.307. In the case of A42U C43U, the self-cleavage was found to be 0.247. With A42U C43A, the self-cleavage was 0.344. On to A42U C43G, for which the self-cleavage was found to be 0.255. Under A42C G45A stands 0.539; under A42C G45U, 0.421. Regarding A42C G45C, the self-cleavage turned out to be 0.451.

As to G39C A44G, the self-cleavage was found to be 0.638.

As to G39C A44C, the self-cleavage turned out to be 0.437. Regarding G39C A44U, the self-cleavage was 0.415. Under A41G A44U stands 0.322.

On to A41G A44G, for which the self-cleavage was 0.692. As to A41G A44C, the self-cleavage was found to be 0.391.

With C43G, the self-cleavage stood at 0.406. Under C43A stands 0.375; under A40U A44U, 0.336; under A40U A44C, 0.474.

In the case of A40U A44G, the self-cleavage is 0.649. For the variant C38G A42G, the self-cleavage amounted to 0.321. Turning to C38G A42C, the self-cleavage is 0.226. As for C38G A42U, the self-cleavage is 0.354.

For the variant G39U A44U, the self-cleavage was 0.372. With G39U A44G, the self-cleavage came to 0.676.

With G39U A44C, the self-cleavage is 0.417. A41G A42C: the self-cleavage stood at 0.294. Consider A41G A42U, for which the self-cleavage stood at 0.335.

With A41G A42G, the self-cleavage was 0.335. C38U C43G: the self-cleavage amounted to 0.321. In the case of C38U C43U, the self-cleavage worked out at 0.34.

For the variant C38U C43A, the self-cleavage came to 0.414. On to A37U A44U, for which the self-cleavage is 0.417. Take A37U A44G: the self-cleavage turned out to be 0.801.

For the variant A37U A44C, the self-cleavage was found to be 0.306.

Take A40G G45U: the self-cleavage came out at 0.421.

As to A40G G45C, the self-cleavage turned out to be 0.466. Take A40G G45A: the self-cleavage was 0.441. G39U G45C: the self-cleavage came out at 0.408.

G39U G45U: the self-cleavage stood at 0.445. To G39U G45A belongs 0.351; to G39U A41U, 0.326.

On to G39U A41G, for which the self-cleavage worked out at 0.327.

In the case of G39U A41C, the self-cleavage came to 0.368. As to C38A A40G, the self-cleavage worked out at 0.369. To C38A A40U belongs 0.307.

Consider C38A A40C, for which the self-cleavage worked out at 0.411. Under A41U C43A stands 0.321; under A41U C43G, 0.332; under A41U C43U, 0.362. A42U: the self-cleavage was determined as 0.338.

As for A42C, the self-cleavage is 0.373.

A42G: the self-cleavage came out at 0.336. For A37C G45C, the self-cleavage was 0.337. Regarding A37C G45A, the self-cleavage worked out at 0.404.

As for A37C G45U, the self-cleavage was 0.636.

Regarding G39A A44G, the self-cleavage is 0.718. For the variant G39A A44C, the self-cleavage was determined as 0.39.

In the case of G39A A44U, the self-cleavage stood at 0.342.

For the variant A40C C43U, the self-cleavage came out at 0.347. For the variant A40C C43G, the self-cleavage is 0.33. For A40C C43A, the self-cleavage was 0.299. As to A40G A41U, the self-cleavage is 0.31. As to A40G A41G, the self-cleavage was 0.346. To A40G A41C belongs 0.341. With G39C A40U, the self-cleavage was 0.296.

For G39C A40G, the self-cleavage is 0.331.

For G39C A40C, the self-cleavage is 0.306. Under C38G A44G stands 0.833; under C38G A44C, 0.508; under C38G A44U, 0.407. In the case of C38G C43A, the self-cleavage came to 0.456. On to C38G C43G, for which the self-cleavage came to 0.288. Regarding C38G C43U, the self-cleavage came out at 0.393. To A40U G45U belongs 0.398; to A40U G45C, 0.458. Consider A40U G45A, for which the self-cleavage worked out at 0.343. Turning to A40C A41C, the self-cleavage stood at 0.385. For the variant A40C A41G, the self-cleavage stood at 0.307. For the variant A40C A41U, the self-cleavage is 0.441. With C38A A41U, the self-cleavage amounted to 0.336. For C38A A41G, the self-cleavage came out at 0.338. Regarding C38A A41C, the self-cleavage turned out to be 0.287.

G36U G45U: the self-cleavage stood at 0.441. As for G36U G45A, the self-cleavage was determined as 0.452. As to G36U G45C, the self-cleavage was determined as 0.454. Turning to C38U A42G, the self-cleavage amounted to 0.34. C38U A42C: the self-cleavage came to 0.396. To C38U A42U belongs 0.317; to A42G G45C, 0.31; to A42G G45A, 0.306. As for A42G G45U, the self-cleavage was 0.354.

For A40U, the self-cleavage was found to be 0.366. Under A40C stands 0.73; under A40G, 0.4; under A37C A41U, 0.296. A37C A41C: the self-cleavage is 0.285. Take A37C A41G: the self-cleavage came out at 0.404.

On to A37G C43U, for which the self-cleavage turned out to be 0.33. For the variant A37G C43A, the self-cleavage was 0.332. Under A37G C43G stands 0.385.

A41G C43A: the self-cleavage turned out to be 0.317.

For the variant A41G C43U, the self-cleavage is 0.366. Regarding A41G C43G, the self-cleavage was 0.346. To A42U A44G belongs 1.37.

A42U A44C: the self-cleavage turned out to be 0.96.

As for A42U A44U, the self-cleavage was 0.276. Under G39C A41G stands 0.328; under G39C A41C, 0.351. To G39C A41U belongs 0.305; to C38G A40C, 0.211. In the case of C38G A40G, the self-cleavage worked out at 0.357. On to C38G A40U, for which the self-cleavage came to 0.301. Under A37U G39A stands 0.386; under A37U G39C, 0.326. In the case of A37U G39U, the self-cleavage amounted to 0.362. For the variant A37C C38A, the self-cleavage came out at 0.535. In the case of A37C C38G, the self-cleavage was found to be 0.381. Regarding A37C C38U, the self-cleavage is 0.546. In the case of G36U C43A, the self-cleavage amounted to 0.36. Consider G36U C43U, for which the self-cleavage came to 0.304. For G36U C43G, the self-cleavage stood at 0.325. To A41U A44G belongs 0.759; to A41U A44C, 0.377. Turning to A41U A44U, the self-cleavage was 0.378.

As to A37U C43A, the self-cleavage amounted to 0.31. On to A37U C43U, for which the self-cleavage came out at 0.38. To A37U C43G belongs 0.271.
